Earlier results in article PMC3589424.

Biological target: CD47 (Homo sapiens) (UniProt Q08722)
Chain of UniProt Q08722 (Q08722 19-323): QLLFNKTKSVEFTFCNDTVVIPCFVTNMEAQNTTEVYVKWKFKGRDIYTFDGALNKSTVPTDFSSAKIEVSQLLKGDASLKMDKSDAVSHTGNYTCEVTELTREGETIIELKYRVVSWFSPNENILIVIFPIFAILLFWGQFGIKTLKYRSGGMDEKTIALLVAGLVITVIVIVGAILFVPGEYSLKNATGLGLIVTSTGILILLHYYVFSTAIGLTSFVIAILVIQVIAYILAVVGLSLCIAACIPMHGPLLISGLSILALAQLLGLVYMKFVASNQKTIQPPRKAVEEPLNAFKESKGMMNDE

Kd: 2 µM
Substance: SIRPα (from UniProt P78324)
